*1 amine or outer side, *2 acyl side, *3 side chain or, on linkers, in order; H or OH if unused. Bridges are numbered along the chain shown (N, C = ends). Where no end group is shown, it is not given here. [ ]: non-standard residue; d: D form. The star is where a group is joined. X1 = N3CH2C(O)NH(CH2CH2O)3CH2CH2(CO), [N-]=[N+]=NCC(=O)NCCOCCOCCOCCC(=O)*; N3CH2C(O)NH(CH2CH2O)2CH2C(O) = [N-]=[N+]=NCC(=O)NCCOCCOCC(=O)*; TATA = O=C(CC[*:1])N1CN(C(=O)CC[*:2])CN(C(=O)CC[*:3])C1; Trp(1-Me) = Cn1cc(C[C@H](N)C(=O)O)c2ccccc21; Arg(Me2a) = CN(C)C(=N)NCCC[C@H](N)C(=O)O; Phe(4-F) = N[C@@H](Cc1ccc(F)cc1)C(=O)O; tBuAla = CC(C)(C)C[C@H](N)C(=O)O; NMeA = CN[C@@H](C)C(=O)O; Octanoyl = CCCCCCCC(=O)*
B1: Example 154 (peptide)
peptide: CQWXEDCWRGXC
modifications: not fully specified; N-term acetyl; CQW[LMe]EDCWRG[4-FPhe]C as printed; 3 Cys on TATA
B2: Example 14 (peptide)
peptide: CQWLEDCWRGXC
modifications: N-term acetyl; CQWLEDCWRG[4-ClPhe]C as printed; 3 Cys on TATA
B3: Example 8 (peptide)
peptide: CQWLEDCWRGXC
modifications: not fully specified; N-term acetyl; CQWLEDCWRG[4F3ClPhe]C as printed; 3 Cys on TATA
B4: Example 148 (peptide)
peptide: CQWLEDCWRGXC
modifications: N-term acetyl; CQWLEDCWRG[BnA]C as printed; 3 Cys on TATA
B5: Example 11 (peptide)
peptide: CQWLEDCWRGXC
modifications: not fully specified; N-term acetyl; CQWLEDCWRG[3,4diClPhe]C as printed; 3 Cys on TATA
B6: Example 158 (peptide)
peptide: CQWLEDCWRGXC
modifications: not fully specified; N-term acetyl; CQWLEDCWRG[3-PyrA]C as printed; 3 Cys on TATA
B7: Example 157 (peptide)
peptide: CQWLEDCWRGXC
modifications: not fully specified; N-term acetyl; CQWLEDCWRG[4-PyrA]C as printed; 3 Cys on TATA
B8: Example 200 (peptide)
peptide: DHDCTWNWEYDCWLDCA
modifications: linker 4-12-16 via TATA
B9: Example 221 (peptide)
peptide: ACDWHWEYDCWLSCEPETGQA
modifications: linker 2-10-14 via TATA
B10: Example 250 (peptide)
peptide: X1-C[NMeA][Trp(1-Me)][tBuAla]QDC[Trp(1-Me)][Arg(Me2a)]G[Phe(4-F)]C-NH2
modifications: linker 1-7-12 via TATA; also: trimer: three peptides clicked via N-terminal azido linker to N-but-3-yn-1-yl-N2,N6-dipent-4-ynoyl-L-lysinamide core
notes: Trimer of identical bicyclic peptides on a tri-alkyne lysinamide core (formula with F3, S9)
B11: Example 251 (peptide)
peptide: {N3CH2C(O)NH(CH2CH2O)2CH2C(O)}-C[NMeA][Trp(1-Me)][tBuAla]QDC[Trp(1-Me)][Arg(Me2a)]G[Phe(4-F)]C-NH2
modifications: linker 1-7-12 via TATA; also: dimer: peptides clicked via N-terminal azido linker to N2,N6-dipent-4-ynoyl-L-lysine core (source also calls it trimeric)
notes: Claim 16 speaks of a dimeric or trimeric moiety
B12: Example 11 (peptide)
peptide: CQWLEDCWRGXC
modifications: not fully specified; Ac-CQWLEDCWRG[3,4diClPhe]C; 3 Cys cyclised with TATA
B13: Example 14 (peptide)
peptide: CQWLEDCWRGXC
modifications: Ac-CQWLEDCWRG[4-ClPhe]C; 3 Cys cyclised with TATA
B14: Example 15 (peptide)
peptide: Octanoyl-C[NMeA][Trp(1-Me)][tBuAla]QDC[Trp(1-Me)][Arg(Me2a)]G[Phe(4-F)]C-NH2
modifications: linker 1-7-12 via TATA
SMILES: CCCCCCCC(=O)N[C@H]1CSCCC(=O)N2CN3CN(C2)C(=O)CCSC[C@H](NC(=O)[C@H](CC(=O)O)NC(=O)[C@H](CCC(N)=O)NC(=O)[C@H](CC(C)(C)C)NC(=O)[C@H](Cc2cn(C)c4ccccc24)NC(=O)[C@H](C)N(C)C1=O)C(=O)N[C@@H](Cc1cn(C)c2ccccc12)C(=O)N[C@@H](CCCNC(=N)N(C)C)C(=O)NCC(=O)N[C@@H](Cc1ccc(F)cc1)C(=O)N[C@H](C(N)=O)CSCCC3=O
B15: Example 16 (peptide)
peptide: CQXLEDCXRGXC
modifications: not fully specified; Ac-CQ[TrpMe]LEDC[TrpMe]RG[4-FPhe]C; 3 Cys cyclised with TATA
B16: Example 146 (peptide)
peptide: CQWLEDCWRGXC
modifications: N-term acetyl; CQWLEDCWRG[2PyrA]C as printed; 3 Cys on TATA
B17: Example 153 (peptide)
peptide: CQWLEDCWRGXC
modifications: not fully specified; N-term acetyl; CQWLEDCWRG[PentFPhe]C as printed; 3 Cys on TATA
B18: Example 160 (peptide)
peptide: CQWXEDCWRGXC
modifications: not fully specified; N-term acetyl; CQW[4-MenL]EDCWRG[4-FPhe]C as printed; 3 Cys on TATA
B19: Example 201 (peptide)
peptide: ADGCEWNWAYDCWLGCA
modifications: linker 4-12-16 via TATA
B20: Example 203 (peptide)
peptide: SQECQWNWTYDCWLGCA
modifications: linker 4-12-16 via TATA
B21: Example 204 (peptide)
peptide: AETCKWMWEYDCWLSCA
modifications: linker 4-12-16 via TATA
B22: Example 206 (peptide)
peptide: ACDWNWTYDCWLDCAPI
modifications: linker 2-10-14 via TATA
B23: Example 208 (peptide)
peptide: ACDWDWDYDCWLPCFAE
modifications: linker 2-10-14 via TATA; not fully specified (C-terminus)
B24: Example 209 (peptide)
peptide: DEQHHECDWHWEYDCWLSCA
modifications: linker 7-15-19 via TATA; not fully specified (C-terminus)
B25: Example 210 (peptide)
peptide: SNATKQCDWHWEYDCWLSCA
modifications: linker 7-15-19 via TATA; not fully specified (C-terminus)
B26: Example 212 (peptide)
peptide: ACDWHWEYDCWLSCDPSSKQA
modifications: linker 2-10-14 via TATA
B27: Example 215 (peptide)
peptide: SPTEPPCDWHWEYDCWLSC
modifications: linker 7-15-19 via TATA; not fully specified (C-terminus)
B28: Example 216 (peptide)
peptide: CDWHWEYDCWLSCEPETGQ
modifications: linker 1-9-13 via TATA; not fully specified (C-terminus)
B29: Example 217 (peptide)
peptide: NRSPSECDWHWEYDCWLSC
modifications: linker 7-15-19 via TATA; not fully specified (C-terminus)
B30: Example 218 (peptide)
peptide: Ac-CDWHWEYDCWLSC
modifications: linker 1-9-13 via TATA; not fully specified (C-terminus)
B31: Example 220 (peptide)
peptide: ANDCVWHWEYDCWLDCA
modifications: linker 4-12-16 via TATA; not fully specified (C-terminus)
B32: Example 222 (peptide)
peptide: CDWHWEYDCWLSCGDMSVS
modifications: linker 1-9-13 via TATA; not fully specified (C-terminus)
B33: Example 223 (peptide)
peptide: CDWHWEYDCWLSCYDNEMS
modifications: linker 1-9-13 via TATA; not fully specified (C-terminus)
B34: Example 227 (peptide)
peptide: CDWHWEYDCWLSCANSEFE
modifications: linker 1-9-13 via TATA; not fully specified (C-terminus)
B35: Example 228 (peptide)
peptide: CDWHWEYDCWLSCGAGESS
modifications: linker 1-9-13 via TATA; not fully specified (C-terminus)
B36: Example 229 (peptide)
peptide: ACSLDPWSCHNWWTCA
modifications: linker 2-9-15 via TATA; not fully specified (C-terminus)
B37: Example 230 (peptide)
peptide: ACALDPWVCPQWWDCA
modifications: linker 2-9-15 via TATA; not fully specified (C-terminus)
B38: Example 231 (peptide)
peptide: ACQEHDWYCLLYQPECA
modifications: linker 2-9-16 via TATA; not fully specified (C-terminus)
B39: Example 232 (peptide)
peptide: ACDELDIPCWIFKTLCA
modifications: linker 2-9-16 via TATA; not fully specified (C-terminus)
B40: Example 4 (peptide)
peptide: CQWXEDCWRGXC
modifications: not fully specified; N-term acetyl; CQW[tBuA]EDCWRG[4-FPhe]C as printed; 3 Cys on TATA

Target: T1, Biotinylated human TSLP (human, biotinylated)
T1 construct: also called hTSLP; thymic stromal lymphopoietin
Assay: SPR, biotinylated hTSLP on streptavidin chip; Example 154, Ac-(SEQ ID NO: 113)

T1 sequence (chain, as listed by the source limits assumed): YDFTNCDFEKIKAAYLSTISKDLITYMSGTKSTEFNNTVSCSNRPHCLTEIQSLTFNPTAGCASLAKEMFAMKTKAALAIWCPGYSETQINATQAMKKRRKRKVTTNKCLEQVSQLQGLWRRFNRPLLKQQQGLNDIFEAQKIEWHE

B1 gave a Kd of 2900 nM.

Target: T1, Biotinylated human TSLP
Assay: SPR, biotinylated hTSLP on streptavidin chip; Example 14, Ac-(SEQ ID NO: 12)

Binder B2 has a Kd of 6 nM.

Target: T1, Biotinylated human TSLP
Assay: SPR, biotinylated hTSLP on streptavidin chip; Example 8, Ac-(SEQ ID NO: 6)

Work on B3 yielded a Kd of 4 nM.

Target: T1, Biotinylated human TSLP
Assay: SPR, biotinylated hTSLP on streptavidin chip; Example 148, Ac-(SEQ ID NO: 107)

B4 showed a Kd of 1100 nM.

Target: T1, Biotinylated human TSLP
Assay: SPR, biotinylated hTSLP on streptavidin chip; Example 11, Ac-(SEQ ID NO: 9)

B5 was tested, and the Kd was 5.8 nM.

Target: T1, Biotinylated human TSLP
Assay: SPR, biotinylated hTSLP on streptavidin chip; Example 158, Ac-(SEQ ID NO: 116)

For B6, the Kd was 5400 nM.

Target: T1, Biotinylated human TSLP
Assay: SPR, biotinylated hTSLP on streptavidin chip; Example 157, Ac-(SEQ ID NO: 115)

B7 showed a Kd of 3900 nM.

Target: TSLP (as used in the human PBMC assay) (UniProt Q969D9 29-159)
Assay: cell-based or functional assay

In order of rising “CCL17 % Inhibition @ 10 µM, 666 pM TSLP” value:
1. B8  -42%
2. B9  -10%
3. B13  14%
4. B12  43%
5. B15  52%

In order of falling “CCL17 % Inhibition @ 10 µM, 50 pM TSLP” value:
1. B11  87%
2. B10  83%
3. B14  58%

In order of rising “CCL17 % Inhibition @ 10 µM, 400 pM TSLP” value:
1. B10  59%
2. B14  64%
3. B11  85%

Target: T1, Biotinylated human TSLP
Assay: SPR, biotinylated hTSLP on streptavidin chip; Example 146, Ac-(SEQ ID NO: 105)

With B16 the Kd was 910 nM.

Target: T1, Biotinylated human TSLP
Assay: SPR, biotinylated hTSLP on streptavidin chip; Example 153, Ac-(SEQ ID NO: 112)

Binder B17 has a Kd of 2700 nM.

Target: T1, Biotinylated human TSLP
Assay: SPR, biotinylated hTSLP on streptavidin chip; Example 160, Ac-(SEQ ID NO: 118)

B18 gave a Kd of 10000 nM.

Target: T2, Biotinylated human TSLP (hTSLP(29-159)-Avi) (human, biotinylated (C-terminal Avi-tag))
T2 construct: also called thymic stromal lymphopoietin
Assay: SPR, biotinylated hTSLP on streptavidin chip, peptide injected

T2 sequence (chain, as listed by the source limits assumed): as above

In order of falling Kd:
1. B36  9900 nM
2. B39  8300 nM
3. B33  3000 nM
4. B35  2300 nM
5. B30  2000 nM
6. B38  1800 nM
7. B37  960 nM
8. B24  910 nM
9. B29  860 nM
10. B34  740 nM
11. B32  450 nM
12. B22  430 nM
13. B23  340 nM
14. B31  340 nM
15. B20  320 nM
16. B28  320 nM
17. B26  250 nM
18. B27  240 nM
19. B25  180 nM
20. B19  170 nM
21. B21  100 nM
22. B11  0.14 nM
23. B10  0.027 nM

Target: T1, Biotinylated human TSLP
Assay: SPR, biotinylated hTSLP on streptavidin chip; Example 4, Ac-(SEQ ID NO: 4)

Binder B40 has a Kd of 2.7 nM.
